Measured values: paper PMC7114247

Molecular target: rVP35 wt (Zaire ebolavirus) (UniProt Q05127)
Chain of UniProt Q05127 (Q05127 whole entry): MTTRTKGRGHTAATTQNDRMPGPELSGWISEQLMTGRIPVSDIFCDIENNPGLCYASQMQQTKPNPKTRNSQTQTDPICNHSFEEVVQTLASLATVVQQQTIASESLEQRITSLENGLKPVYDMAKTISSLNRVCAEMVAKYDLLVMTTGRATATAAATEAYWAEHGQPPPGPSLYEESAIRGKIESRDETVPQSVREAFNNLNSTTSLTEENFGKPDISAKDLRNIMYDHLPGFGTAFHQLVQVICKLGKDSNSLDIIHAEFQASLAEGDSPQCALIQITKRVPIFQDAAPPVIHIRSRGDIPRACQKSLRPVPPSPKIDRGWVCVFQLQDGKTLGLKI

IVT 50 bp dsRNA
Kd: 3.2 nM

IVT 150 bp dsRNA
Kd: 2.4 nM

IVT 500 bp dsRNA
Kd: 2.8 nM
